Data as given in paper PMC8876058 (Viruses, 2022).

Tests used:
[1] = biological target: T1, CyPet-Ubc9 (SUMOylation E2 conjugating enzyme Ubc9 fused to the FRET donor CyPet) (human, UniProt P63279 1-158); test: FRET or BRET; conditions: both partners purified
T1 construct: also called SUMO E2

[2] = biological target: T2, CyPet-PIAS1 (SUMOylation E3 ligase PIAS1 fused to the FRET donor CyPet) (human, UniProt O75925 1-651); test: FRET or BRET; conditions: both partners purified
T2 construct: also called SUMO E3
T2 sequence (O75925 whole entry, the tested form may be a part): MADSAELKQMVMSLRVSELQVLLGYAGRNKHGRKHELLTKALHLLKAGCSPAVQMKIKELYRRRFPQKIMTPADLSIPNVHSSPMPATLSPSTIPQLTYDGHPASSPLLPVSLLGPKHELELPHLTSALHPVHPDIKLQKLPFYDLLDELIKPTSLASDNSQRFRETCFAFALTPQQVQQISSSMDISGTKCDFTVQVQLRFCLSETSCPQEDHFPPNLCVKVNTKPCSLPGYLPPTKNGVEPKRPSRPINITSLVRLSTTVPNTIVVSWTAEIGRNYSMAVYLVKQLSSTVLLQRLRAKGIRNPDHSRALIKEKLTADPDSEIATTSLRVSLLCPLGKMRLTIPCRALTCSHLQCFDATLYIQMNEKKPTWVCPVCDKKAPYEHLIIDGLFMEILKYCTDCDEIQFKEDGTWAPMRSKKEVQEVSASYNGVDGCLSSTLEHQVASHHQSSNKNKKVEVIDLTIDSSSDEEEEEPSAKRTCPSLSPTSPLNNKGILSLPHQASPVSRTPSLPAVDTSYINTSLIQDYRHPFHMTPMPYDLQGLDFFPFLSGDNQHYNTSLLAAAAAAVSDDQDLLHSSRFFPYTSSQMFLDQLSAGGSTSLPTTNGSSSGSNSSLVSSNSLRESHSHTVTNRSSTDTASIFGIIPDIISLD

T1 sequence (P63279 whole entry, the tested form may be a part): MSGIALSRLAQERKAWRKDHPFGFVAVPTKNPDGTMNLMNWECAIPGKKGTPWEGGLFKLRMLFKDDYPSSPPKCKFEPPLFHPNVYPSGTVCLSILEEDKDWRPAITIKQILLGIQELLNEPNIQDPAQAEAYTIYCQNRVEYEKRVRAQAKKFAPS

B1: YPet-Linker3-M1 (M1 protein of influenza B virus fused to the FRET acceptor YPet) (natural protein)
chain: MSLFGDTIAYLLSLTEDGEGKAELAEKLHCWFGGKEFDLDSALEWIKNKRCLTDIQKALIGASICFLKPKDQERKRRFITEPLSGMGTTATKKKGLILAERKMRRCVSFHEAFEIAEGHESSALLYCLMVMYLNPGNYSMQVKLGTLCALCEKQASHSHRAHSRAARSSVPGVRREMQMVSAMNTAKTMNGMGKGEDVQKLAEELQSNIGVLRSLGASQKNGEGIAKDVMEVLKQSSMGNSALVKKYL
B1 showed a Kd [1] of 200 nM and a Kd [2] of 220 nM.
